Assay results: patent publication US20100323957A1, “NOVEL ASSAY FOR INHIBITORS OF EGFR” (THE REGENTS OF THE UNIVERSITY OF CALIFORNIA THE OFFICE OF …, priority 2007, published 2010)
pIC50: −log10 of the molar value.

How the values were obtained:
[1] = target: T1, EGFR kinase domain attached to lipid vesicles (activated EGFR kinase) (Homo sapiens, UniProt P00533); experiment: Vesicle-based kinase assay: EGFR kinase domain attached to lipid vesicles; type: biochemical; conditions: for inhibition of activity of kinase domain attached to lipid vesicles: result in words
T1 construct: DNA encoding residues 672-998 of human EGFR was cloned into pFAST BAC HT; made in house; host or cells: Sf9 insect cells (baculovirus)
Excerpt: (§1) The wild-type and mutant forms of the EGFR kinase domain were expressed and purified using methods known in the art and described in Zhang et al., (2006). The 60-residue MIG6 peptide was expressed in bacteria as a glutathione S-transferase (GST)-fusion protein, purified and treated with the TEV protease to remove the GST-moiety. The wild-type and Y358A mutant MIG6(segments 1-2) peptides were fused to a Trp DLE leader peptide and expressed as inclusion bodies and purified as described. All other MIG6 peptides were produced using solid phase synthesis. […] The binding affinities between the kinase domain and fluorescein-labeled MIG6 peptides were measured by monitoring the change of fluorescence anisotropy during the titration and fitting the data to a single-site binding model. Kinase assays in solution and on vesicle were performed using methods known in the art and described herein. Cell-based inhibition assays were performed using Cos-7 cells co-transfected with constructs containing full-length EGFR and MIG6.

[2] = target: T2, wild-type EGFR kinase domain (Homo sapiens, UniProt P00533); experiment: Fluorescence anisotropy binding titration, wild-type kinase domain; conditions: result in words
T2 construct: DNA encoding residues 672-998 of human EGFR was cloned into pFAST BAC HT; 6-His tag, linker and TEV cleavage site (N, cleaved yes); made in house; host or cells: Sf9 insect cells (baculovirus)
Excerpt: as §1
Fluorescein-labelled 30-residue wild-type, M346L, M346A, F352A and Y358A MIG6 peptides were diluted to final concentrations of 5, 8, 3.1, 3.5 and 2.7 μM in a buffer containing 10 mM Tris, 50 mM NaCl and 2 mM DTT, pH7.5. These peptides in the cuvette were then titrated with the wild-type or mutant forms of the EGFR kinase domain at 20 uC. For the competition assays, the labeled 30-mer wild-type peptide ([…]) and kinase domain ([…]) were mixed and titrated with unlabelled competitor peptides. The fluorescence anisotropy at each titration step was monitored. The I682Q and K799E mutant kinases used in the binding assays contain the N-terminal 63H is tag and linker fragment before the kinase domain, whereas this N-terminal fragment in the wild-type and V924R mutant kinases was removed by Tobacco Etch Virus protease treatment.

[3] = target: T3, EGFR kinase domain L834R mutant (Homo sapiens, UniProt P00533, L858R); experiment: Kinase assay in solution, L834R mutant kinase domain; type: biochemical; conditions: result in words
T3 construct: DNA encoding residues 672-998 of human EGFR was cloned into pFAST BAC HT; made in house; host or cells: Sf9 insect cells (baculovirus)
Description: To test the role of segment 2, we produced a longer peptide (residues 336-412, MIG6(segments 1-2)), and analyzed its effect on a variant of the EGFR kinase domain that contains a mutation (L834R) that renders it constitutively active in the absence of concentration on vesicles. MIG6(segments 1-2) inhibits this mutant kinase domain with an IC50 value of ˜200 nM (FIG. 25a). MIG6(segments 1-2) bearing a mutation within segment 1 (Y358A) inhibited L834R much less efficiently (IC50˜5 μM).
(§2) Kinase assays were performed using methods known in the art and described herein. The substrate peptide was kept at 1 mM in all the experiments. The reported rates are the initial velocities normalized by the kinase concentrations. The wild-type kinase concentrations in the vesicle-based and solution-based assays were […] respectively.
(§3) A continuous enzyme-coupled kinase assay was performed to measure the kinase activity of the proteins as described in Barker et al., ((1995) Biochemistry, Vol. 34(54): 14843-51), with modifications, as described herein. The ATP concentration was kept to 0.5 mM.
(§4) The buffer used contained 10 mM MgCl2, 20 mM Tris, and pH 7.5. […] The substrate peptide was derived from the region spanning Y1173 in EGFR ([…]). All proteins used in this assay contained the N-terminal (His)6 tag unless otherwise noted.

[4] = target: T4, EGFR kinase domain I682Q mutant (Homo sapiens, UniProt P00533, I706Q); experiment: Fluorescence anisotropy binding titration, I682Q mutant kinase domain; conditions: result in words
T4 construct: DNA encoding residues 672-998 of human EGFR was cloned into pFAST BAC HT; made in house; host or cells: Sf9 insect cells (baculovirus)
Excerpt: as §1
(§5) Fluorescein-labelled 30-residue wild-type, M346L, M346A, F352A and Y358A MIG6 peptides were diluted to final concentrations of 5, 8, 3.1, 3.5 and 2.7 μM in a buffer containing 10 mM Tris, 50 mM NaCl and 2 mM DTT, pH7.5. […] The fluorescence anisotropy at each titration step was monitored. […]

[5] = target: T4, EGFR kinase domain I682Q mutant; experiment: Kinase assay in solution, I682Q mutant kinase domain (basal activity); type: biochemical; conditions: result in words
Description: The EGFR kinase domain has very low activity in solution, but is activated on increasing its local concentration by tethering it to lipid vesicles, which promotes the formation of the asymmetric dimer. […] An EGFR kinase domain bearing an I682Q mutation is not stimulated by concentration at the membrane because it is unable to form the asymmetric dimer. […] Thus, MIG6(segment 1) is only able to inhibit the kinase domain in the context of asymmetric dimer formation.
as §2, §3, §4

[6] = target: T5, EGFR kinase domain V924R mutant (Homo sapiens, UniProt P00533, V948R); experiment: Fluorescence anisotropy binding titration, V924R mutant kinase domain; conditions: result in words
T5 construct: DNA encoding residues 672-998 of human EGFR was cloned into pFAST BAC HT; 6-His tag, linker and TEV cleavage site (N, cleaved yes); made in house; host or cells: Sf9 insect cells (baculovirus)
Excerpt: as §1, §5

[7] = system: cancer cells in colon cancer; conditions: in vitro; cited from earlier work
[8] = system: gastric cancer cells; conditions: cited from earlier work
[9] = system: biliary tract cancer; conditions: in vitro; cited from earlier work
[10] = system: lung cancer; conditions: patients with lung cancer; cited from earlier work

With “KSLPSYLNGVMPPTQSFAPDPKYVSS (chains of the parent or of the whole protein) [40-mer peptide]” the pIC50 ([1]; vesicle-based kinase assay, read-out: IC50 for inhibiting the activated EGFR kinase (kinase domain attached to lipid vesicles)) was about 5.00.

With “MIG6(segment 1): 25-residue epitope of MIG6 (residues 337-361) binding the EGFR kinase domain; tested as the 30-residue peptide” the “binding to the wild-type EGFR kinase domain” value [2] was “micromolar affinity”, the “inhibition of L834R mutant kinase domain” value [3] was “did not inhibit” and the “binding affinity for I682Q mutant kinase domain compared with wild-type” value [4] was “same binding affinity”. The “inhibition of basal activity of I682Q mutant kinase domain in solution” value [5] was “not inhibited” and the “binding to EGFR kinase domain bearing V924R mutation” value [6] was “does not bind”.

For `COc1cc2ncnc(Nc3ccc(F)c(Cl)c3)c2cc1OCCCN1CCOCC1` [gefitinib], the “growth of cancer cells” value [7] is given as “halt the growth of cancer cells”, the “apoptosis of gastric cancer cells” value [8] is given as “increase apoptosis” and the “growth of cancer cells” value [9] is given as “halt the growth of cancer cells”.

In the case of `C#Cc1cccc(Nc2ncnc3cc(OCCOC)c(OCCOC)cc23)c1` [Erlotinib], the survival times [10] is given as “increases survival times by several months”.

With “M346A: 30-residue MIG6 segment 1 peptide with M346A mutation (SPKSLPSYLNGVAPPTQSFAPDPKYVSSKA; UniProt Q9UJM3 334-363, looked up, variant M346A)” the “inhibition of activity of kinase domain attached to lipid vesicles” value (from here on “inhibition of activity … to lipid vesicles”) [1] was “do not inhibit kinase activity significantly” and the “binding to the wild-type EGFR kinase domain” value [2] was “abrogates binding”.

With “F352A: 30-residue MIG6 segment 1 peptide with F352A mutation (SPKSLPSYLNGVMPPTQSAAPDPKYVSSKA; UniProt Q9UJM3 334-363, looked up, variant F352A)” the “inhibition of activity … to lipid vesicles” value [1] was “do not inhibit kinase activity significantly” and the “binding to the wild-type EGFR kinase domain” value [2] was “abrogates binding”.

In the case of “Y358A: 30-residue MIG6 segment 1 peptide with Y358A mutation (SPKSLPSYLNGVMPPTQSFAPDPKAVSSKA; UniProt Q9UJM3 334-363, looked up, variant Y358A)”, the “inhibition of activity … to lipid vesicles” value [1] was “do not inhibit kinase activity significantly” and the “binding to the wild-type EGFR kinase domain” value [2] was “abrogates binding”.

In the case of “30-residue fluorescein-labelled MIG6 peptide: fluorescein-labelled MIG6 peptide, residues 334-363, spanning the entire binding epitope of segment 1”, the “binding to EGFR kinase domain bearing V924R mutation” value [6] was “abolishes peptide binding”.
